Data: IntAct's records for PubMed 21460856
Values belong to the substance of their own block, whether it stands above or below them.

Key:
[1] = target: PPP2R5C, Q13362-1
[2] = target: mdm2_human MDM2 (UniProt Q00987)
[3] = target: atm_human ATM (UniProt Q13315)
atm_human ATM, sequence (Q13315 whole entry): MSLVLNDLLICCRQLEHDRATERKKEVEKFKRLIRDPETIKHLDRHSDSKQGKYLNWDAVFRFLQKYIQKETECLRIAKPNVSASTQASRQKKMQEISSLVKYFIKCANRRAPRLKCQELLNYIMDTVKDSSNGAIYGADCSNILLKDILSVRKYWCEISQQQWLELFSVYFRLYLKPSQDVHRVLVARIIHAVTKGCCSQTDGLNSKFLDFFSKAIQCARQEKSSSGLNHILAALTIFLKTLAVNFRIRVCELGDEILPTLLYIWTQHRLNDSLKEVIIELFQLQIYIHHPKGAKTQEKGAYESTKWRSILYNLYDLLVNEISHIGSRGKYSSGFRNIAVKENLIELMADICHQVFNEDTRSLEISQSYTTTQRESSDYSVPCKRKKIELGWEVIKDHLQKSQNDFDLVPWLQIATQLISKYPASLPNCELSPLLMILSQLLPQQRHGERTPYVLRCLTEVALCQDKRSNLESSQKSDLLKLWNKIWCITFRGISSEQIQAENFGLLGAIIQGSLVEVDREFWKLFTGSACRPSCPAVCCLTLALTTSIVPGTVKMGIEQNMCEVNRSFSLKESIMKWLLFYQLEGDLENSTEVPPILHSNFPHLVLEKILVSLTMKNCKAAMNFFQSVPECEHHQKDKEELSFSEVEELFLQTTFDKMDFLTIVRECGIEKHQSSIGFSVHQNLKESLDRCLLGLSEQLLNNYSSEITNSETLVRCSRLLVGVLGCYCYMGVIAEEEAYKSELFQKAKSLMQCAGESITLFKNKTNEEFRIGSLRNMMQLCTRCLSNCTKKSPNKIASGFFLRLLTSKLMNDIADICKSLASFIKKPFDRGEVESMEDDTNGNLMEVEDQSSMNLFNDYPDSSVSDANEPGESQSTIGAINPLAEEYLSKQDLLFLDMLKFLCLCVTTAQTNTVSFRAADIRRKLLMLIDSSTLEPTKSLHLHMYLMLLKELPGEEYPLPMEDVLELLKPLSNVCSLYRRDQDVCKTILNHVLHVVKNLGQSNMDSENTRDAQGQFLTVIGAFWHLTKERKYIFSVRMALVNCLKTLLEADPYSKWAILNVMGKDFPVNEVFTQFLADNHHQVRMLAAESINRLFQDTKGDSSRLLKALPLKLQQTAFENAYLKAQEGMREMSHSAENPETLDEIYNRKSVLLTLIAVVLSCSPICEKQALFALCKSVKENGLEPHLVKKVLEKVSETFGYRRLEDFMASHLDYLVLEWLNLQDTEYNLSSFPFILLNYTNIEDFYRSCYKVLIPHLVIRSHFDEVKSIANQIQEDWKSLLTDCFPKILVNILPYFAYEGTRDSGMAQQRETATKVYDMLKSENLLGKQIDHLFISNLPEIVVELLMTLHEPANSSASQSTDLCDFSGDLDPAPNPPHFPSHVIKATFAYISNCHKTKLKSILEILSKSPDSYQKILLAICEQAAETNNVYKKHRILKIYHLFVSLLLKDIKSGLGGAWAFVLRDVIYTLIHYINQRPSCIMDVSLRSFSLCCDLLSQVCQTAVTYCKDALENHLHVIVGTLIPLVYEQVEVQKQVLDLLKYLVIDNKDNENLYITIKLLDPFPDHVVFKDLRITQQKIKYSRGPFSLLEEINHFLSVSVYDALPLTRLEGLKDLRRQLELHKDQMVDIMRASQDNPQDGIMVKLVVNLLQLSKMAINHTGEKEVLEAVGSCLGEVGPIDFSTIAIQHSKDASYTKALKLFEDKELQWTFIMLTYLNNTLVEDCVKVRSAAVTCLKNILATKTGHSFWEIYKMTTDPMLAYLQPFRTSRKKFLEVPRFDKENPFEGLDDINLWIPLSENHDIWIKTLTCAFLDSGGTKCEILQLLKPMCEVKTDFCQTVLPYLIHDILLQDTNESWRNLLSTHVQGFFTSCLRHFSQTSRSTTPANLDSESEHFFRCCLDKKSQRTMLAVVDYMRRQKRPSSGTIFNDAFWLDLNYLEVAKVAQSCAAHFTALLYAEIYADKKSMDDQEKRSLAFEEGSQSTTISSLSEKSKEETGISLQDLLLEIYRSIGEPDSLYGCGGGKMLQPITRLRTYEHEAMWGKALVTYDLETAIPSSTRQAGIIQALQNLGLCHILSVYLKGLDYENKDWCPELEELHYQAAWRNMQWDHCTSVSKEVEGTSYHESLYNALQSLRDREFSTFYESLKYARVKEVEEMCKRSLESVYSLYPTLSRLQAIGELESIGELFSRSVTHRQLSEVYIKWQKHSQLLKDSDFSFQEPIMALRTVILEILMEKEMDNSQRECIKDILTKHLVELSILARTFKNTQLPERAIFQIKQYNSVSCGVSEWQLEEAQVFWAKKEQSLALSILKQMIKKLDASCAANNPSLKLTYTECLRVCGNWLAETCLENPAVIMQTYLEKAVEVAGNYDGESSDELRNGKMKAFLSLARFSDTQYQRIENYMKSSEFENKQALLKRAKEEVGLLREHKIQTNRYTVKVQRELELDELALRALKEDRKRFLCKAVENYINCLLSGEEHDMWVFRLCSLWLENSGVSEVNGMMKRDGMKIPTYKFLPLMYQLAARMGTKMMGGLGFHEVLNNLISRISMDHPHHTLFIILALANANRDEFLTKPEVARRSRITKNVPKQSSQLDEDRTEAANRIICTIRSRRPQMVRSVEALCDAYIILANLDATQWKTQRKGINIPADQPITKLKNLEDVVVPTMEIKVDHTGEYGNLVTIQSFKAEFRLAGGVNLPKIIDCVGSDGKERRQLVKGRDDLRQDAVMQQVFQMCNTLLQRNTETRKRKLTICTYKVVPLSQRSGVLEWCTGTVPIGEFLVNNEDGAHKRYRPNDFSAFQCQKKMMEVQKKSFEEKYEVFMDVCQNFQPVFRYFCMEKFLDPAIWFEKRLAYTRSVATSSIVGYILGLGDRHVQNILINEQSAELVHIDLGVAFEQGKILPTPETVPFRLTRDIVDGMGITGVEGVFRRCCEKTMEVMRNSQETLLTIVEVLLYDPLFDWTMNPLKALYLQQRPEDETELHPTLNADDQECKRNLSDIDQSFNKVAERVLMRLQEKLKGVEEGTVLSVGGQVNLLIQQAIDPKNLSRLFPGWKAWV

mdm2_human MDM2, sequence (Q00987 whole entry, looked up): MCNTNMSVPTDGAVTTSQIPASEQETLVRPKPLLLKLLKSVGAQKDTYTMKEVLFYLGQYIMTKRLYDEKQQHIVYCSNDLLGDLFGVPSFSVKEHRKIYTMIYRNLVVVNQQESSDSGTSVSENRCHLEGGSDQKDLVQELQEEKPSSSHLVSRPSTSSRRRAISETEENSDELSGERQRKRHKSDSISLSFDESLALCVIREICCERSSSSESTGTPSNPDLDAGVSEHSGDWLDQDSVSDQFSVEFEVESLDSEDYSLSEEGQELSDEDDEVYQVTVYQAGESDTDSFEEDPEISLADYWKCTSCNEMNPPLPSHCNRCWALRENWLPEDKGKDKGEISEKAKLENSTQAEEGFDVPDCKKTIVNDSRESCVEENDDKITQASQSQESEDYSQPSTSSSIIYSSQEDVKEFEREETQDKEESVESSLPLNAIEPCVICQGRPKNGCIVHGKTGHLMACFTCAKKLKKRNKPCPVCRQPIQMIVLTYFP

effect of a mutation on the interaction [1]: disrupting interaction
Substance: Serine-protein kinase ATM (Homo sapiens), Q13315 D2870A;N2875K

effect of a mutation on the interaction [2]: disrupting interaction
Substance: Serine/threonine-protein phosphatase 2A 56 kDa regulatory subunit gamma isoform (Homo sapiens) (from UniProt Q13362) S520D

effect of a mutation on the interaction [3]: disrupting interaction
Substance: Serine/threonine-protein phosphatase 2A 56 kDa regulatory subunit gamma isoform (Homo sapiens) (from UniProt Q13362-1) S520A
